# Experimental data from patent US20150355199A1 (ROCHE DIAGNOSTICS OPERATIONS, published 2015).
# B1: MAB<CFH/CFHR1>M-L20/3 (antibody, V domains shown)
# VH: EVLLQQSGPELVKPGASVKIPCKASGYTFTDYNMDWVKQSHGKSLEWIGDINPNNGFTIYNQKFKGKATLTVDKSSSTAYMELRSLTSEDTAIYYCAINWDWFAYWGQGTLVTVSA
# VL: DVLMTQTPLSLPVSLGDQASISCRSSQSIVHNNGNTYLEWYLLKPGQSPKLLIYKVSNRFSGVPDRFSGSGSGTDFTLKISRVEAEDLGVYYCFQGSHVPYTFGGGTKLEIKR
# notes: Bought monoclonal mouse IgG; also called anti-Complement Factor H, Clone: L20/3; Thermo Scientific cat. no; GAU 020-03-02
# Tests used:
# CFHR2-GS-Avi-GS-His8 = molecular target: T1, CFHR2-GS-Avi-GS-His8 (human); assay: SPR (BiaCore), antibody captured by rabbit anti-mouse IgG on CM5 chip; n.d. = not detectable
# T1 construct: Tagged recombinant protein from HEK293 cells; also called recombinant CFHR2
# T1 chain: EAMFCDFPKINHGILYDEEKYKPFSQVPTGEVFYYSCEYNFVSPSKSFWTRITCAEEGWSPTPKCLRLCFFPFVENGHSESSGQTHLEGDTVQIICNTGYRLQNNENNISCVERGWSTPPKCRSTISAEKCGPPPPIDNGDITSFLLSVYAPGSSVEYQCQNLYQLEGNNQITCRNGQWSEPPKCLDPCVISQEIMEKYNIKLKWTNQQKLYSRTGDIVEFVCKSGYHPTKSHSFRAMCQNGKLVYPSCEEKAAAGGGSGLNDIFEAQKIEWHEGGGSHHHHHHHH
# Experimental: (§1) The antibodies MAB<CFH/CFHR1>M-L20/3, MAB<CFHR1>M-442127, MAB<CFHR1>M-4.1.3 and MAB<CFHR1>M-5.1.5 were analyzed on the BiaCore. The chip CM5 coated with a rabbit anti-Mouse IgG was used to bind the purified monoclonal mouse antibodies. In the next step native CFH or the recombinant CFHR1, CFHR2, CFHR3, CFHR4B or CFHR5 proteins according to SEQ ID No.: 9 to 13 were added to determine the binding affinities of the different antibodies.
# CFHR3-GS-Avi-GS-His8 = molecular target: T2, CFHR3-GS-Avi-GS-His8 (human, UniProt Q02985 19-330); assay: as above
# T2 construct: Tagged recombinant protein from HEK293 cells; also called recombinant CFHR3
# T2 sequence: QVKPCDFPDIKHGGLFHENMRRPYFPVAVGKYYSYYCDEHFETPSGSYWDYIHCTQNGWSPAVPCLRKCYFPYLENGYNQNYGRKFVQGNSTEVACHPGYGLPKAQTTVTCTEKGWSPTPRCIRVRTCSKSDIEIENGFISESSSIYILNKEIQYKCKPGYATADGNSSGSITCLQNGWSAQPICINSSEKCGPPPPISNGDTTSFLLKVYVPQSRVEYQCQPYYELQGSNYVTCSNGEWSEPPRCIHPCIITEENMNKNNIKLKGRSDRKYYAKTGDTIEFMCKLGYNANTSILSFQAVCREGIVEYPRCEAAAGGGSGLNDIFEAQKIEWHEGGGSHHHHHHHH
# Experimental: as §1
# [1] = molecular target: T3, CFHR4-GS-Avi-GS-His8 (CFHR4 Variant B) (human); assay: as above
# T3 construct: Tagged recombinant protein from HEK293 cells; also called CFHR4B; recombinant CFHR4B
# T3 chain: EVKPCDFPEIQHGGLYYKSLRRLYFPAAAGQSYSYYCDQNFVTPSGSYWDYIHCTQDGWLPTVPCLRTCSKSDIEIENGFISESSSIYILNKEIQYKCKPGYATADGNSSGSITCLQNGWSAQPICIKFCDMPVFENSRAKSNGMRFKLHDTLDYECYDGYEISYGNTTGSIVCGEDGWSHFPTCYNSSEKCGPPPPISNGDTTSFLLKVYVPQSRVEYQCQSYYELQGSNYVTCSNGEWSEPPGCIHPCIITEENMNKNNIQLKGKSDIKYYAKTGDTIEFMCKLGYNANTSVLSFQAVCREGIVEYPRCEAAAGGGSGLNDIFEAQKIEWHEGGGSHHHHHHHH
# Experimental: as §1
# CFHL1-GS-Avi-GS-His8 = molecular target: T4, CFHL1-GS-Avi-GS-His8 (human, UniProt P08603 19-445); assay: as above
# T4 construct: also called complement factor H isoform 2
# Experimental: as §1
# [2] = molecular target: T5, native human complement factor H (CFH) (human, UniProt P08603 19-1231); assay: SPR (BiaCore), antibody captured by rabbit anti-mouse IgG on CM5 chip, antigen in solution
# T5 construct: Native CFH; also called native CFH; serum-purified CFH
# Experimental: as §1
# CFHR5-GS-Avi-GS-His8 = molecular target: T6, CFHR5-GS-Avi-GS-His8 (human, UniProt Q9BXR6 19-569); assay: as above
# T6 construct: Tagged recombinant protein from HEK293 cells; also called recombinant CFHR5
# T6 sequence: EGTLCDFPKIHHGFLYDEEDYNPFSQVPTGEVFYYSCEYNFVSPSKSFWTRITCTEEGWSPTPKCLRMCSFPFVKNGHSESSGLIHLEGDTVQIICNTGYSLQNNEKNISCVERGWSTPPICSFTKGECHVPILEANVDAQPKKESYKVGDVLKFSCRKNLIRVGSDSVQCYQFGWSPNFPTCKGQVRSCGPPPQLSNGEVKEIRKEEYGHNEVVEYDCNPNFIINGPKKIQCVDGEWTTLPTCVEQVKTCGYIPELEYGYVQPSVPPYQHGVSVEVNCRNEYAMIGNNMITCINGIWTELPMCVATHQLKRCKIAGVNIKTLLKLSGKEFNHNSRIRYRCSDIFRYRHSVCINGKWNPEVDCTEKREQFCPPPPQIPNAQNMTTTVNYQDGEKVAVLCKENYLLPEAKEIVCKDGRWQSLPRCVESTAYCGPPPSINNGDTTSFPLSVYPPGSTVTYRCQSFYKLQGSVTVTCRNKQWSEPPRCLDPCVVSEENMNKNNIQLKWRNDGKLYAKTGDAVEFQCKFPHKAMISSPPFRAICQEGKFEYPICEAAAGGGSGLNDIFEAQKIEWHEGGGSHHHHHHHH
# Experimental: as §1
# [3] = molecular target: T7, recombinant CFHR1-1-5 (tag-less, full-length mature human complement factor H-related protein 1) (human, UniProt Q03591 19-330); assay: as above
# T7 construct: also called recCFHR1
# T7 sequence: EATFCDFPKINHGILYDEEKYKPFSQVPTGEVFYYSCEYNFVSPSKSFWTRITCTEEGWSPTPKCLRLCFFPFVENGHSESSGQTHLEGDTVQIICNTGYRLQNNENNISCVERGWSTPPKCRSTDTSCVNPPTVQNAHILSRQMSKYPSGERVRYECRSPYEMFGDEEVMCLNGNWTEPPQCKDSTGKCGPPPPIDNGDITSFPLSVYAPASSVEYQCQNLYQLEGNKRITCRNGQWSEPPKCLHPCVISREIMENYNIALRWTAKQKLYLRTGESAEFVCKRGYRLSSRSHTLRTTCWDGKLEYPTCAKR
# Experimental: as §1
binder,measurement,setting,value
B1,binding result,CFHR2-GS-Avi-GS-His8,no binding
same,binding result,CFHR3-GS-Avi-GS-His8,no binding
same,binding result,[1],no binding
same,binding result,CFHL1-GS-Avi-GS-His8,no binding
same,Kd,[2],8 nM
same,Kd,CFHR5-GS-Avi-GS-His8,10 nM
same,Kd,[3],0.1 nM
